Experiments:
[1] = Measurement of fluorescence spectrum, absorption spectrum, quantum yield and fluorescence lifetime; format: physicochemical
Description: In order to analyze the fluorescent properties of UnaG protein, the fluorescence spectrum, absorption spectrum, and quantum yield were measured. The excitation spectrum and the fluorescence spectrum were measured with a spectrophotofluorometer, RF-5300PC (Shimadzu Corporation), at an excitation wavelength of 475 nm and a fluorescence wavelength of 550 nm. The absorption spectrum was measured with a spectrophotometer, U-2900 (Hitachi High-Technologies Corporation). The quantum yield was measured with an absolute quantum yield measurement system, Quantaurus-QY (Hamamatsu Photonics K.K.) at excitation wavelengths of 470 nm and 480 nm. A known fluorescent protein, EGFP, was similarly measured, and the values were compared to those of UnaG protein.
In order to analyze the fluorescent properties of R82EK84E mutant, the fluorescence spectrum, absorption spectrum, and quantum yield were measured. The measurement was performed by the same method as that described in the above-described paragraph 3. The fluorescence lifetime was measured with a small-sized fluorescence lifetime measurement system, Quantaurus-Tau (Hamamatsu Photonics K.K.) and was compared to that of wild-type UnaG protein.
The fluorescence spectrum, absorption spectrum, and quantum yield (excitation wavelength: 470 nm) were measured for analyzing the fluorescent properties of holo A12ES80N mutant protein. The measurement was performed by the same method as that described in paragraph 3, above. The fluorescent properties were compared to those of wild-type UnaG protein.

Escherichia coli cells = assay: Expression of recombinant UnaG protein in Escherichia coli, fluorescence observation; format: cell-based; conditions: blue light, UV transilluminator
Source text: A DNA fragment including the sequence of full-length UnaG gene prepared above was ligated to the restriction enzyme sites, BamHI and EcoRI, of Escherichia coli expression vector […] (GE Healthcare) including a GST-tag sequence that can express the GST-fused protein in Escherichia coli and transformed into Escherichia coli strain DH5α for subcloning. Thus, a UnaG (apo form) expression vector (pGEX-2T-UnaG) for Escherichia coli was constructed.
The constructed expression vector (pGEX-2T-UnaG) was transformed into Escherichia coli strain BL21 (DE3). The transformant was cultured on a plate of an LB solid medium to obtain colonies. The resulting colonies were inoculated in 40 mL of an LB liquid medium and were cultured overnight at 37° C. Here, a glycerol stock of the resulting Escherichia coli solution was produced, and this glycerol stock was used as the recombinant (vector) for Escherichia coli expression in the experiments described below. The LB medium was scaled up to 400 mL using the culture solution, followed by culturing at 37° C. for 1 hr (A600≈1.0). […]
FIG. 1 includes diagrams showing expression of recombinant UnaG protein in Escherichia coli and mammalian cells. […] The diagram (c) includes a differential interference image and a fluorescence image by observation of mammalian cell HEK293T expressing recombinant UnaG protein under a fluorescence microscope. […]

[2] = Detection of unconjugated bilirubin in human serum by apo UnaG fluorescence; conditions: apo UnaG added to 200-fold diluted human serum, room temperature, 527 nm
Description: Blood (5 mL) was collected in a vacuum sealed blood collection tube (Neo-Tube, NIPRO) from a vein of the arm using a needle of 23G (Terumo Corporation) and a 5-mL cylinder (Terumo Corporation). The collected blood was shielded from light and was left to stand at room temperature for 30 min and was then centrifuged at a rotation speed of 3,000 rpm for 20 min (KUBOTA K-80) to collect about 2.5 mL of serum. The collected serum was cooled with ice while being shielded from light and was promptly subjected to measurement of bilirubin.
Apo UnaG was added to the serum diluted with PBS by 200-fold so as to give a final concentration of 0.5 μM, and 200 μL of the mixture was added to each well of a 96-well microplate (black, non-binding, Greiner Bio-One). Measurement of fluorescence was started immediately after the addition of samples to the plate. The fluorescence intensity was measured at room temperature at every 10 min for 1 hr at a fluorescence wavelength of 527 nm (excitation wavelength: 497 nm) using EnSpire (trademark) multi-mode plate reader (PerkinElmer Co., Ltd.). Each serum was measured using three wells, and the serum not mixed with apo UnaG protein was also measured as background. The net fluorescence intensity was determined by subtracting the intensity level of the background from the intensity level of the serum mixed with apo UnaG protein. […]

[3] = Table 3, wild-type vs R82EK84E mutant
[4] = Table 3, wild-type vs R82EK84E mutant, holo form reconstructed with bilirubin
[5] = Table 4, wild-type vs holo A12ES80N mutant

B1: UnaG: fluorescent polypeptide including the amino acid sequence of SEQ ID NO: 1, originally isolated from Japanese eel; fluoresces in the presence of bilirubin (protein, listed as Anguilla japonica)
chain: MVEKFVGTWKIADSHNFGEYLKAIGAPKELSDGGDATTPTLYISQKDGDKMTVKIENGPPTFLDTQVKFKLGEEFDEFPSDRRKGVKSVVNLVGEKLVYVQKWDGKETTYVREIKDGKLVVTLTMGDVVAVRSYRRATE
Maximum excitation wavelength ([1]; Table 2, UnaG compared to EGFP): 498 nm
Maximum fluorescence wavelength ([1]; Table 2, UnaG compared to EGFP): 527 nm
Brightness ([1]; Table 2, [(Molar extinction coefficient) × (Quantum yield)]/1,000): 39.4
Molar extinction coefficient ([1]; Table 2, at the maximum excitation wavelength (498 nm UnaG, 490 nm EGFP)): 77,300 (498 nm) M^−1 cm^−1
Quantum yield ([1]; Table 2, excitation wavelengths 470 nm and 480 nm): 51%
Molar extinction coefficient [1, 3]: 56,992 M^−1 cm^−1
Quantum yield [1, 3]: 51%
Maximum excitation wavelength [1, 4]: 498 nm
Maximum fluorescence wavelength [1, 4]: 527 nm
Fluorescence lifetime (τ1/ns) ([1]; Table 3, wild-type vs R82EK84E mutant, Quantaurus-Tau): 2.2 ns
Maximum excitation wavelength [1, 5]: 499 nm
Maximum fluorescence wavelength [1, 5]: 527 nm
Molar extinction coefficient [1, 5]: 52,687 M^−1 cm^−1
Quantum yield ([1]; Table 4, excitation wavelength 470 nm): 53.2%
Fluorescence lifetime ([1]; main fluorescent properties of UnaG): 2.2 nanosecond
fluorescence of expressed protein in cells (Escherichia coli cells): did not emit fluorescence
time stable fluorescence lasts [2]: ≥ 1 h
time until stable fluorescence is generated [2]: about 10 min

Source: patent publication US9957308B2, “Method for detecting bilirubin using a fluorescent protein” (RIKEN, priority 2013, dated 2018)
